In the supplement of paper PMC10567573:
± gives the standard deviation.

Experiment: protein stability index of a GFP-peptide fusion (GPS, HEK-293T) (PSI 1-6); higher = more stable
Conditions: c terminus: a fixed tail appended
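Note: 24-mer peptide tiles fused after GFP, lentivirally expressed, FACS-sorted into six equal bins by GFP/DsRed ratio, decoded by Illumina sequencing, PSI is the read-weighted mean bin number.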

Sequence | protein stability index (treatment: DMSO) | protein stability index (treatment: MLN4924 1 uM, 8 h)
WEMIRKIGDTSVSYKYTSRYVLKA [LMNB1] | 1.98 ± 0.58 | 2.56 ± 0.49
WFLSKTEELNKEVASNSELVQSSR [KRT16] | 3.86 ± 0.39 | 3.96 ± 0.17
WLLTKIDHWNNEKERILLVTDKTL [TPRG1] | 2.11 ± 0.41 | 2.16 ± 0.28
WLSSRAAAIKVNDSVPFHLGWNST [MYORG] | 1.99 ± 0.23 | 2.19 ± 0.38
WNDSCGEDMEASDYELEDETRPAK [WEE1] | 5.41 ± 0.32 | 5.45 ± 0.17
WRGNGINVLKIAPESAIKFMAYEQ [SLC25A25] | 2.19 ± 0.29 | 2.36 ± 0.19
WRTWMTITQSWQVSVRVQPRGRAH [C22orf15] | 2.38 ± 0.64 | 3.05 ± 0.39
WSQQIEESTTVVTTQSAEVGAAET [KRT18] | 5.5 ± 0.21 | 5.42 ± 0.14
WVKQQAEREAEKEQKRLERLQRKL [SDE2] | 4.18 ± 0.36 | 4.1 ± 0.33
WVLEPVLEGWRPDQLYRRKKDNHA [ELOA2] | 2.51 ± 0.31 | 3.34 ± 0.14
WVSHTAAMTGTFPAYGMSPSLSTI [DVL3] | 2.62 ± 0.34 | 2.29 ± 0.26
YCFMIAYGTQRTLILESQNWRYAT [FUT8] | 3.46 ± 0.51 | 3.28 ± 0.27
YEEGMYADWWQEPDAKGDEAEAEP [P3H4] | 5.49 ± 0.17 | 5.37 ± 0.22
YFMIQALNQKTSEKMKKRKMSNSF [RHOBTB3] | 2.24 ± 0.08 | 2.37 ± 0.33
YGPVEVISHWHPNITINIVDDHTP [CLPTM1] | 2.41 ± 0.23 | 2.54 ± 0.17
YGRSDVVVLCFSIANPNSLNHVKS [RHOBTB1] | 3.21 ± 0.43 | 2.64 ± 0.69
YHPRDQNKVLVCPMKSAPVMLTLS [RBBP5] | 2.33 ± 0.66 | 2.34 ± 0.3
YLNLDTWEWNELIPQGICPVGRSW [KLHDC2] | 2.79 ± 1.1 | 2.39 ± 0.42
YLSCLEELMKCQIIYPRQQLLTLR [TRIP13] | 2.68 ± 0.68 | 2.69 ± 0.36
YLTSQLPPLREIILGPSSAYTQTQ [NFE2L1] | 2.38 ± 0.3 | 2.52 ± 0.1
YMHVGSCQHLSSSAEELRKARSNS [KCNA3] | 3.95 ± 0.11 | 4.37 ± 0.22
YMVIEEGGMNHSAFPQTPFKTGNS [KCNA3] | 3.27 ± 0.17 | 3.22 ± 0.61
YNPSFEDHQTLLSAAHEVELQRQK [NOP53] | 4.19 ± 0.56 | 4.35 ± 0.44
YPTDNTKVMIFKSSYSLSDMVSNI [MIA2] | 2.51 ± 0.62 | 2.436 ± 0.003
YQIYDVSGESNSAVSTEDLKECLK [LARP4] | 4.2 ± 0.18 | 4.2 ± 0.19
YQLCRVQECPPDGRSFREEQCVSF [ADAMTSL2] | 2.92 ± 0.65 | 2.97 ± 0.32
YREHKSLTGTARYMSINTHLGKEQ [CSNK1G1] | 3.47 ± 0.34 | 3.27 ± 0.49
